Measurements taken from the supplement of paper PMC11246515.
± gives the standard deviation of the averaged measurements.

Assay: total protein half-life in vivo (active degradation + dilution); higher = more stable protein
[1] = E. coli NCM3722 delta-clpP delta-lon delta-hslV, growth: N-lim chemostat, doubling time 6 h
[2] = E. coli NCM3722 delta-clpP, growth: N-lim chemostat, doubling time 6 h
[3] = E. coli NCM3722 delta-hslV, growth: N-lim chemostat, doubling time 6 h
[4] = E. coli NCM3722 delta-lon, growth: N-lim chemostat, doubling time 6 h
[5] = E. coli NCM3722 delta-smpB, growth: N-lim chemostat, doubling time 6 h
[6] = wild type E. coli NCM3722, growth: C-lim chemostat, doubling time 3 h
[7] = wild type E. coli NCM3722, growth: C-lim chemostat, doubling time 6 h
[8] = wild type E. coli NCM3722, growth: C-lim chemostat, doubling time 12 h
[9] = wild type E. coli NCM3722, growth: N-lim chemostat, doubling time 6 h
[10] = wild type E. coli NCM3722, growth: N-lim chemostat, doubling time 12 h
[11] = wild type E. coli NCM3722, growth: P-lim chemostat, doubling time 6 h
[12] = wild type E. coli NCM3722, growth: P-lim chemostat, doubling time 12 h

| Sequence | total protein half-life in vivo [1] [h] | total protein half-life in vivo [2] [h] | total protein half-life in vivo [3] [h] | total protein half-life in vivo [4] [h] | total protein half-life in vivo [5] [h] | total protein half-life in vivo [6] [h] | total protein half-life in vivo [7] [h] | total protein half-life in vivo [8] [h] | total protein half-life in vivo [9] [h] | total protein half-life in vivo [10] [h] | total protein half-life in vivo [11] [h] | total protein half-life in vivo [12] [h] |
| --- | --- | --- | --- | --- | --- | --- | --- | --- | --- | --- | --- | --- |
| MRALPICLVALMLSGCSMLSRSPVEPVQSTAPQPKAEPAKPKAPRATPVRIYTNAEELVGKPFRDLGEVSGDSCQASNQDSPPSIPTARKRMQINASKMKANAVLLHSCEVTSGTPGCYRQAVCIGSALNITAK | 5.47 ± 0.43 | 5.57 ± 0.38 | 6.58 ± 0.75 | 6.404 ± 0.011 | 5.51 ± 0.33 | 2.89 ± 0.62 | 5.65 ± 0.51 | 12.4 ± 3.6 | 5.65 ± 0.16 | 14.7 ± 1.2 | 6.5 ± 1.4 | 13.4 ± 0.85 |
| MRCKGFLFDLDGTLVDSLPAVERAWSNWARRHGLAPEEVLAFIHGKQAITSLRHFMAGKSEADIAAEFTRLEHIEATETEGITALPGAIALLSHLNKAGIPWAIVTSGSMPVARARHKIAGLPAPEVFVTAERVKRGKPEPDAYLLGAQLLGLAPQECVVVEDAPAGVLSGLAAGCHVIAVNAPADTPRLNEVDLVLHSLEQITVTKQPNGDVIIQ | 4.84 ± 0.48 | 5.45 ± 1.7 | 4.91 ± 0.61 | 5.46 ± 0.45 | 3.992 ± 0.0097 | 3.06 ± 0.1 | 6.07 ± 0.31 | 10.1 ± 0.43 | 4.54 ± 0.39 | 6.8 ± 0.18 | 5.77 ± 0.43 | 11.4 ± 0.17 |
| MRFLLGVLMLMISGSALATIDVLQFKDEAQEQQFRQLTEELRCPKCQNNSIADSNSMIATDLRQKVYELMQEGKSKKEIVDYMVARYGNFVTYDPPLTPLTVLLWVLPVVAIGIGGWVIYARSRRRVRVVPEAFPEQSVPEGKRAGYVVYLPGIVVALIVAGVSYYQTGNYQQVKIWQQATAQAPALLDRALDPKADPLNEEEMSRLALGMRTQLQKNPGDIEGWIMLGRVGMALGNASIATDAYATAYRLDPKNSDAALGYAEALTRSSDPNDNRLGGELLRQLVRTDHSNIRVLSMYAFNAFEQQRFGEAVAAWEMMLKLLPANDTRRAVIERSIAQAMQHLSPQESK [P0ABM9] | 3.85 ± 0.42 | – | 3.5 ± 0.5 | – | 3.32 ± 0.057 | 3.26 ± 0.15 | – | 9.451 ± 0.016 | 3.8 ± 0.21 | 5.979 ± 0.034 | 3.91 ± 0.59 | 6.58 ± 1.2 |
| MRFMQRSKDSLAKWLSAILPVVIVGLVGLFAVTVIRDYGRASEADRQALLEKGNVLIRALESGSRVGMGMRMHHVQQQALLEEMAGQPGVLWFAVTDAQGIIILHSDPDKVGRALYSPDEMQKLKPEENSRWRLLGKTETTPALEVYRLFQPMSAPWRHGMHNMPRCNGKAVPQVDAQQAIFIAVDASDLVATQSGEKRNTLIILFALATVLLASVLSFFWYRRYLRSRQLLQDEMKRKEKLVALGHLAAGVAHEIRNPLSSIKGLAKYFAERAPAGGEAHQLAQVMAKEADRLNRVVSELLELVKPTHLALQAVDLNTLINHSLQLVSQDANSREIQLRFTANDTLPEIQADPDRLTQVLLNLYLNAIQAIGQHGVISVTASESGAGVKISVTDSGKGIAADQLDAIFTPYFTTKAEGTGLGLAVVHNIVEQHGGTIQVASQEGKGSTFTLWLPVNITRKDPQG | 5.89 | – | 6.11 ± 0.45 | – | 5.27 ± 0.29 | 3.57 ± 0.24 | 4.91 | 13.4 ± 2.7 | 5.12 | 14.1 | – | 11.4 ± 0.38 |
| MRFSHRLFLLLILLLTGAPILAQEPSDVAKNVRMMVSGIVSYTRWPALSGPPKLCIFSSSRFSTALQENAATSLPYLPVIIHTQQEAMISGCNGFYFGNESPTFQMELTEQYPSKALLLIAEQNTECIIGSAFCLIIHNNDVRFAVNLDALSRSGVKVNPDVLMLARKKNDG | 3.28 ± 0.12 | – | 2.98 ± 0.17 | – | 3.1 | – | > 8 | 6.32 | 2.98 | 4.75 | 5 | 6.03 ± 0.098 |
| MRFSRFIIGLTSCIAFSVQAANVDEYITQLPAGANLALMVQKVGASAPAIDYHSQQMALPASTQKVITALAALIQLGPDFRFTTTLETKGNVENGVLKGDLVARFGADPTLKRQDIRNMVATLKKSGVNQIDGNVLIDTSIFASHDKAPGWPWNDMTQCFSAPPAAAIVDRNCFSVSLYSAPKPGDMAFIRVASYYPVTMFSQVRTLPRGSAEAQYCELDVVPGDLNRFTLTGCLPQRSEPLPLAFAVQDGASYAGAILKDELKQAGITWSGTLLRQTQVNEPGTVVASKQSAPLHDLLKIMLKKSDNMIADTVFRMIGHARFNVPGTWRAGSDAVRQILRQQAGVDIGNTIIADGSGLSRHNLIAPATMMQVLQYIAQHDNELNFISMLPLAGYDGSLQYRAGLHQAGVDGKVSAKTGSLQGVYNLAGFITTASGQRMAFVQYLSGYAVEPADQRNRRIPLVRFESRLYKDIYQNN | 6.48 ± 0.36 | 6.25 ± 0.35 | 6.87 ± 0.72 | 6.194 ± 0.044 | 6.051 ± 0.02 | 3.24 ± 0.54 | 6.21 ± 0.86 | 12.7 ± 0.72 | 6.15 ± 0.52 | 13.4 ± 0.64 | 6.25 ± 0.55 | 12.6 ± 0.42 |
| MRFSTQMMYQQNMRGITNSQAEWMKYGEQMSTGKRVVNPSDDPIAASQAVVLSQAQAQNSQYTLARTFATQKVSLEESVLSQVTTAIQNAQEKIVYASNGTLSDDDRASLATDIQGLRDQLLNLANTTDGNGRYIFAGYKTETAPFSEEKGKYVGGAESIKQQVDASRSMVIGHTGDKIFDSITSNAVAEPDGSASETNLFAMLDSAIAALKTPVADSEADKETAAAALDKTNRGLKNSLNNVLTVRAELGTQLNELESLDSLGSDRALGQTQQMSDLVDVDWNATISSYIMQQTALQASYKAFTDMQGLSLFQLSK | 2.65 ± 0.11 | > 8 | – | – | – | 0.265 ± 0.026 | 0.393 ± 0.063 | 0.399 ± 0.39 | – | – | – | – |
| MRGKILLYQLKYRWQSLSIFGCFLCKMTLFRYQKIIYDTGVHQMRSFFYTICSSEQQESITDHHSLAEICQKFNILPEHVVIEQVDIKEVVSEQRLLRQLIHHEMNRQDTLVIPDLSCLGRTVEDLQNILFFCLQKEMFIYSYHPASRIEPSAESCLSFLIARQDTIDIHNLKSTKSRYRHVKKKLGRKEGSKYRRDITILKKGGFTQAEIAKKLSISLSTVKRHWNNGIIG | 6.03 | – | – | – | – | – | – | – | – | – | – | – |
